Assays:
[1] = target: BH-REC1 fragment of NmeCas9 (Neisseria meningitides); assay: ITC
[2] = target: NmeCas9 (Neisseria meningitides) (UniProt C9X1G5); assay: ITC
NmeCas9 (Neisseria meningitides), sequence (C9X1G5 whole entry): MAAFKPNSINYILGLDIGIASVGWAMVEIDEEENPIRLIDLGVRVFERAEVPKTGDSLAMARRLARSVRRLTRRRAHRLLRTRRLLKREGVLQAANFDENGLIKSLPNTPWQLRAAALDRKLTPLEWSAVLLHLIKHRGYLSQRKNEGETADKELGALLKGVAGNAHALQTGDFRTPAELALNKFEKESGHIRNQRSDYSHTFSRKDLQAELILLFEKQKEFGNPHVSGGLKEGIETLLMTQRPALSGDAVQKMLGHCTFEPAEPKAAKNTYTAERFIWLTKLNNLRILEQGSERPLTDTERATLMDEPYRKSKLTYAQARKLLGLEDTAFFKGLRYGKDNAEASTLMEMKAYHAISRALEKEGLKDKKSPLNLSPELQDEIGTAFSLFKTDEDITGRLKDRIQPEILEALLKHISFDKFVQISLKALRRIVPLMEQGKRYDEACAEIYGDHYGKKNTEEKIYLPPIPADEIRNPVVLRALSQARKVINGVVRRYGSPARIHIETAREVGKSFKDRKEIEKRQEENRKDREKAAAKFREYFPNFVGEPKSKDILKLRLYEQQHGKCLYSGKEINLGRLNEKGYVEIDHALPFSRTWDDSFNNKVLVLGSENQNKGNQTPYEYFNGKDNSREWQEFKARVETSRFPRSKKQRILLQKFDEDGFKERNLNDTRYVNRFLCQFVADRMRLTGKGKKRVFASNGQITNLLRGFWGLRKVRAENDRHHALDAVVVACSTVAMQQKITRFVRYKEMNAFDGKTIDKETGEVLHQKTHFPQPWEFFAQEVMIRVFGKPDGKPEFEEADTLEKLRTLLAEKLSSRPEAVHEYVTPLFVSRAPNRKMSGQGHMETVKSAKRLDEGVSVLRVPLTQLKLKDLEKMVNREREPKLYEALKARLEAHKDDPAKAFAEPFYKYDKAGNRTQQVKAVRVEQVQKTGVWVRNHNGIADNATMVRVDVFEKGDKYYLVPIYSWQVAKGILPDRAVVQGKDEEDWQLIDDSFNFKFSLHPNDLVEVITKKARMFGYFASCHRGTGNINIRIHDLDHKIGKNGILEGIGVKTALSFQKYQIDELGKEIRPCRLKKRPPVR

Substance	fold reduction of the binding affinity in high salt against 300 mM salt [1] [fold]	Kd [2] [nM]	stoichiometry N [2]	fold reduction in binding affinity against wild-type AcrIIA17 [1] [fold]
AcrIIA17 (natural protein)	10	5	1	
AcrIIA17 D81A/E84A mutant (natural protein)				20

— paper PMC8754659
